Columns and labels:
Test in all cases: pull-down
[1] = molecular target: His-ImuB-L378A (M. smegmatis) (M. smegmatis)
[2] = molecular target: His-ImuB-L378A+V383A (M. smegmatis) (M. smegmatis)
[3] = molecular target: His-ImuB-V383A (M. smegmatis) (M. smegmatis)

Q: What does the source list for “Strep-VFP-tagged ImuA’ (M. smegmatis) (natural protein)”?
A: fold less pulled down than by His-ImuB [1]: 1.5 fold; fold less pulled down than by His-ImuB [2]: 3 fold; fold less pulled down than by His-ImuB [3]: 1.5 fold

— doi:10.1101/2023.03.28.534377
